In patent US5710126A, “T cell epitopes of ryegrass pollen allergen” (ImmuLogic Pharmaceutical Corporation, priority 1995, dated 1998):

Columns and labels:
[1] = test system: T cell lines from grass-allergic patients primed in vitro with affinity purified Lol p V; experiment: T cell proliferation (tritiated thymidine uptake) of Lol p V-primed T cell lines restimulated with peptides or proteins; assay type: cell-based, human; conditions: one allergic patient; results not shown; 2-50 μg/ml antigen
Text: As discussed in Example 2, human T cell stimulating activity can be tested by culturing T cells obtained from an individual sensitive to Lol p V allergen, (i.e., an individual who has an IgE mediated immune response to Lol p V allergen) with a peptide derived from the allergen and determining whether proliferation of T cells occurs in response to the peptide as measured, e.g., by cellular uptake of tritiated thymidine. Stimulation indices for responses by T cells to peptides can be calculated as the maximum CPM in response to a peptide divided by the control CPM. A stimulation index (S.I.) equal to or greater than two times the background level is considered "positive". […]
In addition, preferred peptides have a positivity index (P.I.) of at least about 60, more preferably about 100, more preferably at least about 200 and most preferably at least about 300. The positivity index for a peptide is determined by multiplying the mean T cell stimulation index by the percent of individuals, in a population of individuals sensitive to ryegrass pollen (e.g., preferably a population of at least 15 individuals,more preferably a population of at least 30 individuals or more), who have a T cell stimulation index to such peptide of at least 2.0. […]
This amount of priming antigen was determined to be optimal for the activation of T cells from most grass-allergic patients. […]

[2] = test system: human IgE; experiment: Direct ELISA of human IgE binding to coated antigen
Procedure: (§1) To examine the importance of Lol p V, both direct and competition ELISA assays were performed. In the direct ELISA, 100 μl of 10 μg/ml of antigen in Phosphate Buffered Saline, pH 7.4 (PBS) was used to coat Immulon II (Dynatech, Chantilly, Va.) 96 well plates for 4 hours at room temperature (RT) or overnight (O/N) at 4° C. In between each step the plates were washed 3× with PBS-T. The excess coating antigen(s) was removed and the wells blocked with 300 μl/well 0.5% gelatin+1 mg/ml PVP in PBS for 1 hour at RT. Serially diluted patient plasma or the diluent PBS+0.05% Tween^-20 was incubated in at 100 μl/well in duplicate wells overnight at 4° C. […] Plates were read on a MR7000 plate reader (Dynatech, Chantilly, Va.) with a 450 nm filter. The absorbance levels of duplicate wells were averaged. The results were graphed as absorbance vs. dilution. […] The results are plotted as the absorbance vs. the log of the concentration of competing antigen.
For the direct ELISA, wells were coated with either soluble pollen extract (SPE) of ryegrass pollen or rLol p V (purified native Lol p V may have a small amount of Lol p I; use of recombinant material assures that the IgE binding is only to Lol p V ) and human IgE antibody binding to these antigens was analyzed. […]

[3] = test system: human basophil mediator release; experiment: Histamine release assay on whole blood of a ryegrass allergic individual; assay type: cell-based; conditions: one ryegrass allergic individual; 37° C., 30 minutes; FIG. 12
Procedure: A histamine release assay was performed on one ryegrass allergic individual, using Lol p SPE and rLol p V as the added antigens. This assay is a measure of IgE reactivity through human basophil mediator release, and it is based on the detection of an acylated derivative of histamine using a specific monoclonal antibody (Morel, A. M. and Delaage, M. A.; 1988, J. Allergy Clin. Immunol. 82:646-654). The reagents for this radioimmunoassay are sold as a kit by Amac Inc. (Westbrook, Me.). Whole heparinized blood drawn from a grass allergic individual and then 200 μl aliquots were mixed with an equal amount of the grass antigens SPE and rLol p V at various concentrations or the diluent, PACM buffer (25 mM PIPES, 100 mM NaCl, 5 mM KCL, 4 mM CaCl2, 1 mM MgCl2, 0.003% HSA, pH7.3) in 1.5 ml polypropylene. The release reactions were carried out at 37° C. for 30 minutes. After this incubation, the samples were centrifuged at 1500 RPM for 3 minutes and the supernatants removed. For the total histamine release, 0.1 ml of blood was added to 0.9 ml of PACM buffer, vortexed, and then boiled for 3 minutes. The samples were spun at 13000 RPM and the supernatant removed for analysis. Duplicate samples were used to measure total release. All of the supernatants are diluted 1:4 in acylation buffer and the remainder of the assay is performed according to the manufacturer's instructions.

[4] = test system: human IgE binding to ryegrass pollen SPE; experiment: Competition ELISA for IgE binding to ryegrass pollen SPE; conditions: IgE source PHP-A or individual patient plasma; FIGS. 10 and 11
Procedure: as §1
In the competition assay, ELISA wells were coated with ryegrass pollen SPE and then allergic patient IgE binding was measured in the presence of competing ryegrass pollen SPE, purified native Lol p V, or rLol p V. The source of allergic IgE in this assay was PHP-A (FIG. 10) or individual patient plasma (FIG. 11). […]

[5] = test system: specific IgE antibody; conditions: immunoblotting; Lol p V isoforms; WO 93/04174; cited from earlier work

IgE binding in direct ELISA ([2]; IgE source PHP-A, PHP-B or four individual patients, FIGS. 6-9) | IgE binding in direct ELISA to Lol p V peptides and protein ([2]; IgE source PHP-B, preliminary assay, FIGS. 13a and 13b) | Molecule | T cell proliferative response of one patient [1] | histamine release [3] | competition for IgE binding to ryegrass pollen SPE [4] | ryegrass pollen sensitive patients possessing specific IgE antibody that bound [5] [%]
high IgE binding | very high IgE binding | rLol p V: bacterially expressed recombinant Lol p V encoded by clone 12R, with His6 sequence, purified on Ni chelating column (protein) ADAGYTPAAAATPATPAATPAAAGGKATTDEQKLLEDVNAGFKAAVAAAANAPPADKFKIFEAAFSESSKGLLATSAAKAPGLIPKLDTAYDVAYKAAEGATPEAKYDAFVTALTEALRVIAGALEVHAVKPATEEVPAAKIPTGELQIVDKIDAAFKIAATAANAAPTNDKFTVFESAFNKALNECTGGAYETYKFIPSLEAAVKQAYAATVAAAPEVKYAVFEAALTKAITAMTQAQKAGKPAAAAATGAATVATGAATAAAGAATAAAGGYKA | responds well | strong histamine release over a wide concentration range |  | 
 |  | purified native Lol p V: Lol p V allergen affinity purified from ryegrass pollen extract on a mAb 1B9 column (protein, The 5 proline residues at the N-terminus were found to be all hydroxyprolines) ADAGYTPAAAATPATPAATPAAAGGKATTDEQKLLEDVNAGFKAAVAAAANAPPADKFKIFEAAFSESSKGLLATSAAKAPGLIPKLDTAYDVAYKAAEGATPEAKYDAFVTALTEALRVIAGALEVHAVKPATEEVPAAKIPTGELQIVDKIDAAFKIAATAANAAPTNDKFTVFESAFNKALNECTGGAYETYKFIPSLEAAVKQAYAATVAAAPEVKYAVFEAALTKAITAMTQAQKAGKPAAAAATGAATVATGAATAAAGAATAAAGGYKA | responds well |  |  | 
 |  | Lol p V: major Lolium perenne L. ryegrass pollen allergen, Group V allergen (protein) ADAGYTPAAAATPATPAATPAAAGGKATTDEQKLLEDVNAGFKAAVAAAANAPPADKFKIFEAAFSESSKGLLATSAAKAPGLIPKLDTAYDVAYKAAEGATPEAKYDAFVTALTEALRVIAGALEVHAVKPATEEVPAAKIPTGELQIVDKIDAAFKIAATAANAAPTNDKFTVFESAFNKALNECTGGAYETYKFIPSLEAAVKQAYAATVAAAPEVKYAVFEAALTKAITAMTQAQKAGKPAAAAATGAATVATGAATAAAGAATAAAGGYKA |  |  | a significant portion of IgE against Lol p SPE is specific for Lol p V | 80
